Results published in FireProtDB (doi:10.1073/pnas.0910421107).

B1: Ribose import binding protein RbsB, P02925 (parent)
chain: MNMKKLATLVSAVALSATVSANAMAKDTIALVVSTLNNPFFVSLKDGAQKEADKLGYNLVVLDSQNNPAKELANVQDLTVRGTKILLINPTDSDAVGNAVKMANQANIPVITLDRQATKGEVVSHIASDNVLGGKIAGDYIAKKAGEGAKVIELQGIAGTSAARERGEGFQQAVAAHKFNVLASQPADFDRIKGLNVMQNLLTAHPDVQAVFAQNDEMALGALRALQTAGKSDVMVVGFDGTPDGEKAVNDGKLAATIAQLPDQIGAKGVETADKVLKGEKVQAKYPVDLKLVVKQ

Variants of: B1
Details: Escherichia coli (strain K12), pH 7.6, Thermal, MOPS 25 mM, Potassium chloride 100 mM, structure 2DRI, whole UniProt chain shown
[1] = 25 °C, Quantitative cysteine reactivity
[2] = Quantitative cysteine reactivity

MNMKKLATLVSAVALSATVSANAMAKDTIALVVSTLNNPFFVSLKDGAQKEADKLGYNLVVLDSQNNPAKELANVQDLTVRGTKILCINPTDSDAVGNAVKMANQANIPVITLDRQATKGEVVSHIASDNVLGGKIAGDYIAKKAGEGAKVIELQGIAGTSAARERGEGFQQAVAAHKFNVLASQPADFDRIKGLNVMQNLLTAHPDVQAVFAQNDEMALGALRALQTAGKSDVMVVGFDGTPDGEKAVNDGKLAATIAQLPDQIGAKGVETADKVLKGEKVQAKYPVDLKLVVKQ [L87C]
ddG of mutation (higher = less stable) (25 °C, Activity): 2.7 kcal/mol | unfolding enthalpy (van 't Hoff) (25 °C, Activity): 81 kcal/mol | unfolding free energy (25 °C, Activity): 3.2 kcal/mol | unfolding enthalpy (van 't Hoff) [1]: 81 kcal/mol | unfolding free energy [1]: 3.2 kcal/mol | Tm (Activity): 54 °C | change of melting temperature, mutant - wild type (higher = more stable) (Activity): -8.6 °C | Tm [2]: 54 °C | change of melting temperature, mutant - wild type (higher = more stable) [2]: -8.6 °C

MNMKKLATLVSAVALSATVSANAMAKDTIALVVSTLNNPFFVSLKDGAQKEADKLGYNLVVLDSQNNPAKELANVQDLTVRGTKILLINPTDSDAVGNAVKMANQANIPVITLDRQATKGEVVSHIASDNVLGGKIAGDYIAKKAGEGAKVIELQGIAGTSAARERGEGFQQAVAAHKFNVLASQPADFDRIKGLNVMQNLLTAHPDVQAVFCQNDEMALGALRALQTAGKSDVMVVGFDGTPDGEKAVNDGKLAATIAQLPDQIGAKGVETADKVLKGEKVQAKYPVDLKLVVKQ [A213C]
unfolding enthalpy (van 't Hoff) [1]: 91 kcal/mol | unfolding free energy [1]: 4.1 kcal/mol | Tm (Activity): 56 °C | change of melting temperature, mutant - wild type (higher = more stable) (Activity): -6.6 °C | Tm [2]: 56 °C | change of melting temperature, mutant - wild type (higher = more stable) [2]: -6.6 °C
